Source: US20170260274A1 (LUTANA, published 2017)

B1: humanized anti-epidermal growth factor receptor (EGFR) scFv IZI08 (scFv)
scFv: EVQLVESGGGLVQPGGSLRLSCAASGFSLTNYGVHWVRQAPGKGLEWLGVIWSGGNTDYNTPFTSRFTISRDNSKNTLYLQMNSLRAEDTAVYYCARALTYYDYEFAYWGQGTTVTVSSGGGGSGGGGSGGGGSDIQLTQSPSFLSASVGDRVTITCRASQSIGTNIHWYQQKPGKAPKLLIKYASESISGVPSRFSGSGSGTEFTLTISSLQPEDFATYYCQQNNNWPTTFGAGTKLEIKR
notes: Expressed in E. coli periplasm, monomer purified by SEC; also called anti-EGFR scFv; anti-EGFR scFv IZI08; not shown: C-terminal c-myc tag; C-terminal hexahistidine tag
B2: Ranpirnase-GS-scFv (other)
chain: QDWLTFQKKHITNTRDVDCDNIMSTNLFHCKDKNTFIYSRPEPVKAICKGIIASKNVLTTSEFYLSDCNVTSRPCKYKLKKSTNKFCVTCENQAPVHFVGVGSCGGGGSGGGGSGGGGSEVQLVESGGGLVQPGGSLRLSCAASGFSLTNYGVHWVRQAPGKGLEWLGVIWSGGNTDYNTPFTSRFTISRDNSKNTLYLQMNSLRAEDTAVYYCARALTYYDYEFAYWGQGTTVTVSSGGGGSGGGGSGGGGSDIQLTQSPSFLSASVGDRVTITCRASQSIGTNIHWYQQKPGKAPKLLIKYASESISGVPSRFSGSGSGTEFTLTISSLQPEDFATYYCQQNNNWPTTFGAGTKLEIKR
modifications: Q* at position 1 of SEQ ID NO:4 stands for a pyroglutamate (as printed for Ranpirnase)
notes: also called Ranpimase-GS-scFv; immunoRNase Ranpirnase-GS-scFv; not shown: C-terminal c-myc tag; C-terminal hexahistidine tag

What was measured:
[1] = molecular target: T1, epidermal growth factor receptor (EGFR) (human, UniProt P00533 25-1210); assay: flow cytometry, equilibrium binding on EGFR-expressing A431 cells (apparent KD)
T1 construct: whole, on cells; Endogenous EGFR on human tumor cell lines; also called target antigen
Procedure: Detection of bound antibody or immunoRNase was performed using murine anti-c-myc monoclonal antibody clone 9E10 (Roche, Penzberg, Germany) and goat-anti-mouse fluorescein isothiocyanate (FITC) conjugate (Jackson ImmunoResearch, Suffolk, UK). Fluorescence of stained cells was measured on a FACS Canto II flow cytometer (Becton Dickinson) using the FACS Diva Software (Becton Dickinson). Background fluorescence was substracted from measured median fluorescence and relative affinities were calculated by nonlinear regression using GraphPad Prism 5.0 (GraphPad Software, La Jolla, Calif., USA).

[2] = molecular target: T1, epidermal growth factor receptor (EGFR); assay: cell-based or functional assay

| Binder | Kd [1] | IC50 (nM), cell viability, A431 [2] | IC50 (nM), cell viability, HNO97 [2] | IC50 (nM), cell viability, HNO211 [2] | IC50 (nM), cell viability, HNO410 [2] |
| --- | --- | --- | --- | --- | --- |
| B1 | 0.0096 µM | > 3620 nM | > 3620 nM | > 3620 nM | > 3620 nM |
| B2 | 0.0147 µM | > 3620 nM | 1260 nM | 1420 nM | 2520 nM |
